Results: patent US20150344570A1 (published 2015)

B1: GpH7-B3 variant S337_02A/GpL16-k0 (antibody, human IgG1, kappa)
heavy: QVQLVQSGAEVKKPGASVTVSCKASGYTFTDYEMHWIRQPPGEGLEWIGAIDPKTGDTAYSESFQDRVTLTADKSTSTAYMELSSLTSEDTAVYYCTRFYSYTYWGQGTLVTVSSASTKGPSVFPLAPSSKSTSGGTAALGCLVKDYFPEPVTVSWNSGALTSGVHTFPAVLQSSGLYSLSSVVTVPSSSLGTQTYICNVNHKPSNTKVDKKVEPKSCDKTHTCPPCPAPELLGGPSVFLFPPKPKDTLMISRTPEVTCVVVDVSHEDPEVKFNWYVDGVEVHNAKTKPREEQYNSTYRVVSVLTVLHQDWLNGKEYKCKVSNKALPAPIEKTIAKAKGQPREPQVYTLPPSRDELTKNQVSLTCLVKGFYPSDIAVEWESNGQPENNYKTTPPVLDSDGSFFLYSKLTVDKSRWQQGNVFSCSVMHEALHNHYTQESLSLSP
light: DIVMTQSPLSLPVTPGEPASISCQASESLVHSNRNTYLHWYLQKPGQSPQLLIYKVSNRFSGVPDRFSGSGSGTDFTLKISRVEAEDVGVYYCSQNTHVPPTFGQGTKVEIERTVAAPSVFIFPPSDEQLKSGTASVVCLLNNFYPREAKVQWKVDNALQSGNSQESVTEQDSKDSTYSLSSTLTLSKADYEKHKVYACEVTHQGLSSPVTKSFNRGEC
notes: also called Ho Ab
B2: GpH7-B3 variant P331_06M/GpL16-k0 (antibody, human IgG1, kappa)
heavy: not shown
light: B1 light
notes: also called Ho Ab
B3: GpH7-B3 variant P331_07I/GpL16-k0 (antibody, human IgG1, kappa)
heavy: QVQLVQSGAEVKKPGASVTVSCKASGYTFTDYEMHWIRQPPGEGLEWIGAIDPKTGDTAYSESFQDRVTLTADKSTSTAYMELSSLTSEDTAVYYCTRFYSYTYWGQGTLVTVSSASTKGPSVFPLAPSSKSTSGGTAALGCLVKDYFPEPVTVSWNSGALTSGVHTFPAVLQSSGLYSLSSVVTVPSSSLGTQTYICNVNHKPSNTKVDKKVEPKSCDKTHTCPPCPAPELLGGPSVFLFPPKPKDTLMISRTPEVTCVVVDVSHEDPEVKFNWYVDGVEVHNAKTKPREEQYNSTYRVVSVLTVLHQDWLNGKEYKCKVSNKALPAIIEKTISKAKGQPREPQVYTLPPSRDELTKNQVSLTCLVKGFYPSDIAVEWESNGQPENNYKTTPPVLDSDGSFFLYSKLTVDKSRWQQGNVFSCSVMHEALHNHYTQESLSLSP
light: B1 light
notes: also called Ho Ab
B4: GpH7-B3 variant P331_08L/GpL16-k0 (antibody, human IgG1, kappa)
heavy: not shown
light: B1 light
notes: also called Ho Ab
B5: GpH7-B3 variant P331_09D/GpL16-k0 (antibody, human IgG1, kappa)
heavy: not shown
light: B1 light
notes: also called Ho Ab
B6: GpH7-B3 variant P331_10E/GpL16-k0 (antibody, human IgG1, kappa)
heavy: not shown
light: B1 light
notes: also called Ho Ab
B7: GpH7-B3 variant P331_13S/GpL16-k0 (antibody, human IgG1, kappa)
heavy: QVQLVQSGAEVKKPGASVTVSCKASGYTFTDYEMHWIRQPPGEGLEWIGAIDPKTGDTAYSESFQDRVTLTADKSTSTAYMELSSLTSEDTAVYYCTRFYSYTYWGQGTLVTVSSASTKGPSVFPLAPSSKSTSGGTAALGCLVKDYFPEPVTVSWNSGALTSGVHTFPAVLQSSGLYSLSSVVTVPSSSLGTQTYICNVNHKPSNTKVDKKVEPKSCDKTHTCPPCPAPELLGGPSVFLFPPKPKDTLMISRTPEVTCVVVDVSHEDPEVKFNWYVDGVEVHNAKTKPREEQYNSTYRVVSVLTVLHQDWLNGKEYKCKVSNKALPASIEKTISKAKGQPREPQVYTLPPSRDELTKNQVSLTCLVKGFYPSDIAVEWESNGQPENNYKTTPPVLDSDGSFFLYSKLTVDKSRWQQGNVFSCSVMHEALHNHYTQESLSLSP
light: B1 light
notes: also called Ho Ab
B8: GpH7-B3 variant P331_14T/GpL16-k0 (antibody, human IgG1, kappa)
heavy: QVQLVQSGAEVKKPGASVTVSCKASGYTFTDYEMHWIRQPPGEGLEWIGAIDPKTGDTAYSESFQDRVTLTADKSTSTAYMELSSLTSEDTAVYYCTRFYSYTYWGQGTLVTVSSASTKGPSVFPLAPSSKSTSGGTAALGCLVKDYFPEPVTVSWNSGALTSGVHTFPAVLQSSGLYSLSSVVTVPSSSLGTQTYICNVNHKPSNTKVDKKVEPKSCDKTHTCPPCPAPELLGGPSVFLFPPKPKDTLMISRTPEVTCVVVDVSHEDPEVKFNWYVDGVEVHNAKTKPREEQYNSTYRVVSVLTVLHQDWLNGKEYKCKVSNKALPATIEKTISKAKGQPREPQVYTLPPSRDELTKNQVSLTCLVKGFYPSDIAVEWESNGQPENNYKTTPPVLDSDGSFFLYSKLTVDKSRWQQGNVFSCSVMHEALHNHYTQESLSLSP
light: B1 light
notes: also called Ho Ab
B9: GpH7-B3 variant P331_15Y/GpL16-k0 (antibody, human IgG1, kappa)
heavy: not shown
light: B1 light
notes: also called Ho Ab
B10: GpH7-B3 variant P331_16H/GpL16-k0 (antibody, human IgG1, kappa)
heavy: not shown
light: B1 light
notes: also called Ho Ab
B11: GpH7-B3 variant P331_18N/GpL16-k0 (antibody, human IgG1, kappa)
heavy: not shown
light: B1 light
notes: also called Ho Ab
B12: GpH7-B3 variant P331_20W/GpL16-k0 (antibody, human IgG1, kappa)
heavy: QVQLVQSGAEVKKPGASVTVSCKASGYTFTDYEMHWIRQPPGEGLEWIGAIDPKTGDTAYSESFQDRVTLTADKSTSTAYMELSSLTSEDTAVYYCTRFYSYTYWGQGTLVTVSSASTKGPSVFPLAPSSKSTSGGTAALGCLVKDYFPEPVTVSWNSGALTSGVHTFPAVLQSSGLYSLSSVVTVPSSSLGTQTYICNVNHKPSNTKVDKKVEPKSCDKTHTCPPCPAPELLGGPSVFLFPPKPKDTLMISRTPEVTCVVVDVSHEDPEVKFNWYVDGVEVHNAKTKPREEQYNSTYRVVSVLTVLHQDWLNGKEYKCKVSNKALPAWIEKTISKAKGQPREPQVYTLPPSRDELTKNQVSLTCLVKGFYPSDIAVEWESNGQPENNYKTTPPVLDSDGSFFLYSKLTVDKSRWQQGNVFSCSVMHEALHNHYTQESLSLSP
light: B1 light
notes: also called Ho Ab
B13: GpH7-B3 variant Q295_06M/GpL16-k0 (antibody, human IgG1, kappa)
heavy: not shown
light: B1 light
notes: also called Ho Ab
B14: GpH7-B3 variant Q295_10E/GpL16-k0 (antibody, human IgG1, kappa)
heavy: not shown
light: B1 light
notes: also called Ho Ab
B15: GpH7-B3 variant S239_06M/GpL16-k0 (antibody, human IgG1, kappa)
heavy: not shown
light: B1 light
notes: also called Ho Ab
B16: GpH7-B3 variant S239_07I/GpL16-k0 (antibody, human IgG1, kappa)
heavy: not shown
light: B1 light
notes: also called Ho Ab
B17: GpH7-B3 variant S239_08L/GpL16-k0 (antibody, human IgG1, kappa)
heavy: not shown
light: B1 light
notes: also called Ho Ab
B18: GpH7-B3 variant S239_10E/GpL16-k0 (antibody, human IgG1, kappa)
heavy: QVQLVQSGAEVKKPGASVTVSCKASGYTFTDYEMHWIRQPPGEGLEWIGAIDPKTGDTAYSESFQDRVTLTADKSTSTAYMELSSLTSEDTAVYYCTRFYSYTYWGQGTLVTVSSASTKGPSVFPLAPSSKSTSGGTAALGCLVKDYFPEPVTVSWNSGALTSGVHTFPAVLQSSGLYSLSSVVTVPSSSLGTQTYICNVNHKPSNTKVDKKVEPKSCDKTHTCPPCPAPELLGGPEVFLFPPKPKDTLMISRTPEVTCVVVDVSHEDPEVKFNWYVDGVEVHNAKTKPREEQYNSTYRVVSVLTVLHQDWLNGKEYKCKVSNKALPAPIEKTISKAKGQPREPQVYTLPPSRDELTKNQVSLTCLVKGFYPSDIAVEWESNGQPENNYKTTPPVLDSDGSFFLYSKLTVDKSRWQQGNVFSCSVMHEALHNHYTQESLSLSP
light: B1 light
notes: also called Ho Ab
B19: GpH7-B3 variant S239_14T/GpL16-k0 (antibody, human IgG1, kappa)
heavy: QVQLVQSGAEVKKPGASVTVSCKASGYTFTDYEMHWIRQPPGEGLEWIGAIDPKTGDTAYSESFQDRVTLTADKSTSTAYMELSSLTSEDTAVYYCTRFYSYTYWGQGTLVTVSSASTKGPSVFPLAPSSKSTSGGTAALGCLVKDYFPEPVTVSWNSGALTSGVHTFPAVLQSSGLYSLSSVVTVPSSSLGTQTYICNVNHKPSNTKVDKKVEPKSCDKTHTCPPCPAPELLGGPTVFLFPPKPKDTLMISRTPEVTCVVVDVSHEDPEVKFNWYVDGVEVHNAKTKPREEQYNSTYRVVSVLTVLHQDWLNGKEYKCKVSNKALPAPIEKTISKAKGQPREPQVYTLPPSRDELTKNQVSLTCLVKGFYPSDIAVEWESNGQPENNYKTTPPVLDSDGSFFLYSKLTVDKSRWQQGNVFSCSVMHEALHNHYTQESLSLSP
light: B1 light
notes: also called Ho Ab
B20: GpH7-B3 variant S239_18N/GpL16-k0 (antibody, human IgG1, kappa)
heavy: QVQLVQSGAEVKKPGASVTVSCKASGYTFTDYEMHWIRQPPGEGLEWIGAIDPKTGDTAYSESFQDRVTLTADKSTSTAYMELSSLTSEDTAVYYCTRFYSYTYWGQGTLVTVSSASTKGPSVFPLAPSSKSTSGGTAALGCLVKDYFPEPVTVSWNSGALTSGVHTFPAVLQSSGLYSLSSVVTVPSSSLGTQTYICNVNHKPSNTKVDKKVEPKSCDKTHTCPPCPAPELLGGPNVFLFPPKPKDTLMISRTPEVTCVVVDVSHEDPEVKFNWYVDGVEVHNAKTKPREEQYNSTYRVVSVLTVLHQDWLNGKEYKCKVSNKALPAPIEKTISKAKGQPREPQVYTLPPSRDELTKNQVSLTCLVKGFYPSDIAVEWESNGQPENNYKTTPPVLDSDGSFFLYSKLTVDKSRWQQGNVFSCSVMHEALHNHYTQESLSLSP
light: B1 light
notes: also called Ho Ab
B21: GpH7-B3 variant S267_03V/GpL16-k0 (antibody, human IgG1, kappa)
heavy: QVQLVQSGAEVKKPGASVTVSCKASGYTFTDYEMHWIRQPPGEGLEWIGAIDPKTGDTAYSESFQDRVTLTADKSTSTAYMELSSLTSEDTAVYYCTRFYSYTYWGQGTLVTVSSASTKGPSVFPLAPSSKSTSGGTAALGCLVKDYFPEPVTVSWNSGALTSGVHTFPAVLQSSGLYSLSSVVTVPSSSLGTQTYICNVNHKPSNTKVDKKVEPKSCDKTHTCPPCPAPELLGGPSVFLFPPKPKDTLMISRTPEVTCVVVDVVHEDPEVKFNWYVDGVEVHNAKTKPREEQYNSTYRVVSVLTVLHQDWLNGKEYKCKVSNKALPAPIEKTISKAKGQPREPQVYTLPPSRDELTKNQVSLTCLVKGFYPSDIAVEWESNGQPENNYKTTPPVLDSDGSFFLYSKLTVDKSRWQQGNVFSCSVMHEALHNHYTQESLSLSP
light: B1 light
notes: also called Ho Ab
B22: GpH7-B3 variant S267_06M/GpL16-k0 (antibody, human IgG1, kappa)
heavy: not shown
light: B1 light
notes: also called Ho Ab
B23: GpH7-B3 variant S267_09D/GpL16-k0 (antibody, human IgG1, kappa)
heavy: not shown
light: B1 light
notes: also called Ho Ab
B24: GpH7-B3 variant S267_19Q/GpL16-k0 (antibody, human IgG1, kappa)
heavy: not shown
light: B1 light
notes: also called Ho Ab
B25: GpH7-B3 variant S298_06M/GpL16-k0 (antibody, human IgG1, kappa)
heavy: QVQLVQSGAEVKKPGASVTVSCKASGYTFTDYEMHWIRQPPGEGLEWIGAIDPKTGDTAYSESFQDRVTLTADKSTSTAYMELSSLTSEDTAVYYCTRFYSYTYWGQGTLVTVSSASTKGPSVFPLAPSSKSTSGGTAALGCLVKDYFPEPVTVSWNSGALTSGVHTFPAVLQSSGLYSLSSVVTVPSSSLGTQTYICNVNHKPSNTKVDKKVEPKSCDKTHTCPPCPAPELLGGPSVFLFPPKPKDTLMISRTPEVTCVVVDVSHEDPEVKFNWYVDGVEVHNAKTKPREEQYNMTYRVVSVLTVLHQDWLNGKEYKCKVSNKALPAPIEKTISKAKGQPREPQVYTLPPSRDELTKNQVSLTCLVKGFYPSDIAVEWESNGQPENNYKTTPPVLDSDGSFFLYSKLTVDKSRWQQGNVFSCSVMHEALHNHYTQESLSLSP
light: B1 light
notes: also called Ho Ab
B26: GpH7-B3 variant S298_08L/GpL16-k0 (antibody, human IgG1, kappa)
heavy: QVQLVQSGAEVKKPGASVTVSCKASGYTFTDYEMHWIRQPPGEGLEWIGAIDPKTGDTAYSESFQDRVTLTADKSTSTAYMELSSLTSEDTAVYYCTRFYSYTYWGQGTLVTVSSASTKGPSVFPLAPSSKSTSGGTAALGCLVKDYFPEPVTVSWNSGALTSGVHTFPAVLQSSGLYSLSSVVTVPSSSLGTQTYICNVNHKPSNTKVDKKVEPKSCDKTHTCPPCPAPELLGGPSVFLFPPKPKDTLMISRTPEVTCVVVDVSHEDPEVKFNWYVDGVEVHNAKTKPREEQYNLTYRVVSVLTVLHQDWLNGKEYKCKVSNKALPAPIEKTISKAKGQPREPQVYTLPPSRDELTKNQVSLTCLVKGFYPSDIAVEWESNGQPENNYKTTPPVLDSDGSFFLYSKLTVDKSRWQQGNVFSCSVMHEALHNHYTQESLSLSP
light: B1 light
notes: also called Ho Ab

The binders below were run against T1, FcγRIIa R (FcγRIIa, allotype with Arg at position 131), extracellular domain with C-terminal His tag (human, UniProt P12318 34-217) (assay: SPR (Biacore), antibody captured on antigen peptide chip, FcγR as analyte; relative binding).
T1 construct: extracellular domain; also called FcγRIIa R type; 2aR
T1 sequence (looked up): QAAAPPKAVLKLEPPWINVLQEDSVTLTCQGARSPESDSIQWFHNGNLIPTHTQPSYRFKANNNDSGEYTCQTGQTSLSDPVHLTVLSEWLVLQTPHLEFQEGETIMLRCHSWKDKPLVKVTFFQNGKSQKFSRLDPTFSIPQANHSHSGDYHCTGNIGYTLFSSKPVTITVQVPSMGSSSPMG
Procedure: Analysis of interaction between objective antibody and the FcγR was carried out using Biacore T100 (GE Healthcare). HBS-EP+ (GE Healthcare) was used as the running buffer, and the measurement temperature was set to 25° C. Chips produced by immobilizing the antigen peptide by the amine coupling method to a Series S Sencor Chip CM5 (GE Healthcare), or alternatively, chips produced by allowing preliminarily biotinylated antigen peptides to interact with and immobilize onto a Series S Sensor Chip SA (certified) (GE Healthcare) were used. Antibodies of interest were captured onto an antigen peptide-immobilized chip, and allowed to interact to each FcγR diluted with running buffer. To regenerate and repeatedly use the chip, the antibodies captured on the chip were washed off by reacting 10 mM glycine-HCl, pH 1.5.

Ho/Con_2aR	Binder
102 % of GpH7-B3/GpL16-k0 (=100)	B1
79.8 % of GpH7-B3/GpL16-k0 (=100)	B2
67 % of GpH7-B3/GpL16-k0 (=100)	B3
74.4 % of GpH7-B3/GpL16-k0 (=100)	B4
88.8 % of GpH7-B3/GpL16-k0 (=100)	B5
94.6 % of GpH7-B3/GpL16-k0 (=100)	B6
87.8 % of GpH7-B3/GpL16-k0 (=100)	B7
80.8 % of GpH7-B3/GpL16-k0 (=100)	B8
105 % of GpH7-B3/GpL16-k0 (=100)	B9
100 % of GpH7-B3/GpL16-k0 (=100)	B10
76.9 % of GpH7-B3/GpL16-k0 (=100)	B11
102 % of GpH7-B3/GpL16-k0 (=100)	B12
93.9 % of GpH7-B3/GpL16-k0 (=100)	B13
99.2 % of GpH7-B3/GpL16-k0 (=100)	B14
82.9 % of GpH7-B3/GpL16-k0 (=100)	B15
85.3 % of GpH7-B3/GpL16-k0 (=100)	B16
106 % of GpH7-B3/GpL16-k0 (=100)	B17
122 % of GpH7-B3/GpL16-k0 (=100)	B18
92.3 % of GpH7-B3/GpL16-k0 (=100)	B19
103 % of GpH7-B3/GpL16-k0 (=100)	B20
115 % of GpH7-B3/GpL16-k0 (=100)	B21
102 % of GpH7-B3/GpL16-k0 (=100)	B22
167 % of GpH7-B3/GpL16-k0 (=100)	B23
110 % of GpH7-B3/GpL16-k0 (=100)	B24
102 % of GpH7-B3/GpL16-k0 (=100)	B25
101 % of GpH7-B3/GpL16-k0 (=100)	B26
